These results are taken from paper PMC3392526.

Common to all, as to test: crystal structure
Data set [1] concerns the target T1, ALKBH2-dN55 crosslinking mutant (Homo sapiens, UniProt Q6NS38 56-261, C67S;C165S;G169C;C192S).
T1 sequence: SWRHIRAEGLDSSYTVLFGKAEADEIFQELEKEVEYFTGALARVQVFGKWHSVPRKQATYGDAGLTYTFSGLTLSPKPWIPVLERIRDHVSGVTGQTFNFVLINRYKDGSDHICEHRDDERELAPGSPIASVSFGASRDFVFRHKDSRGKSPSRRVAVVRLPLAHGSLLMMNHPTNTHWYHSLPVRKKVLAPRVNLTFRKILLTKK

The target of data set [2] is T1, ALKBH2-dN55 crosslinking mutant. This is another data set of the same source.
The target is the same in data set [3]. This is another data set of the same source.
The target is the same in data set [4]. This is another data set of the same source.

Read-outs that look alike come from different tables or passages of the source.

B1: AT DNA (dsDNA)
DNA 1: ATGTATAACTGCG
DNA 2: TCGCAGTTATACA
modifications: C* (position 9 of strand 1): disulfide crosslinking cytosine
On to B1, for which the binding result in data set [1] is recorded as “binds”.

B2: 3-meC DNA (dsDNA)
DNA 1: CTGTCTCACTGCG
DNA 2: TCGCAGTGAGACA
modifications: 3-methylcytosine at position 7 of strand 1 (written C); C* (position 9): disulfide crosslinking cytosine
On to B2, for which, in data set [2], the binding result was “binds”.

B3: eA DNA (dsDNA)
DNA 1: CTGTCAAACTGCG
DNA 2: TCGCAGTTAGACA
modifications: 1,N6-ethenoadenine at position 7 of strand 1 (written A); no C* printed in this strand
As to B3, the binding result in data set [2] is recorded as “binds”.

B4: CG DNA (dsDNA)
DNA 1: CTGTCATCACTGCG
DNA 2: TCGCAGTGATGACA
modifications: C* (position 10 of strand 1): disulfide crosslinking cytosine
In the case of B4, the binding result in data set [3] was “binds”.

B5: CI DNA (dsDNA)
DNA 1: ATGTATCACTGCG
DNA 2: TCGCAGTGATACA
modifications: C* (position 9 of strand 1): disulfide crosslinking cytosine; strand 2 position 8 is inosine (written G)
Take B5: the binding result in data set [4] is listed as “binds”.
